Numbering of substitutions follows the chain as printed. Names may count otherwise.
B1: variant CD80 IgV-Fc M47L (Fc fusion)
chain: VIHVTKEVKEVATLSCGHNVSVEELAQTRIYWQKEKKMVLTMMSGDLNIWPEYKNRTIFDITNNLSIVILALRPSDEGTYECVVLKYEKDAFKREHLAEVTLSVKAD
B2: variant CD80 IgV-Fc (inert) H18Y/E35D/M47V/V68M/A71G (Fc fusion)
chain: B1 chain with H18Y, E35D, L47V, V68M, A71G
B3: variant CD80 IgV-Fc (inert) H18C/A26P/E35D/M47L/V68M/A71G (Fc fusion)
chain: B1 chain with H18C, A26P, E35D, V68M, A71G
B4: variant CD80 IgV-Fc (inert) H18I/A26P/E35D/M47V/V68M/A71G (Fc fusion)
chain: B1 chain with H18I, A26P, E35D, L47V, V68M, A71G
B5: variant CD80 IgV-Fc (inert) H18T/A26N/E35D/M47L/V68M/A71G (Fc fusion)
chain: B1 chain with H18T, A26N, E35D, V68M, A71G
B6: variant CD80 IgV-Fc (inert) H18V/A26K/E35D/M47L/V68M/A71G (Fc fusion)
chain: B1 chain with H18V, A26K, E35D, V68M, A71G
B7: variant CD80 IgV-Fc (inert) H18V/E35D/M47V/V68M/A71G/D90G (Fc fusion)
chain: B1 chain with H18V, E35D, L47V, V68M, A71G, D90G
B8: variant CD80 IgV-Fc (inert) H18Y/A26P/E35D/M47I/V68M/A71G (Fc fusion)
chain: B1 chain with H18Y, A26P, E35D, L47I, V68M, A71G
B9: variant CD80 IgV-Fc (inert) H18Y/E35D/M47V/V68L/A71G/D90G (Fc fusion)
chain: B1 chain with H18Y, E35D, L47V, V68L, A71G, D90G
B10: variant CD80 IgV-Fc (inert) H18V/A26D/E35D/M47V/V68M/A71G/D90G (Fc fusion)
chain: B1 chain with H18V, A26D, E35D, L47V, V68M, A71G, D90G
B11: variant CD80 IgV-Fc (inert) H18V/A26Q/E35D/M47V/V68L/A71G/D90G (Fc fusion)
chain: B1 chain with H18V, A26Q, E35D, L47V, V68L, A71G, D90G

Experiments:
[1] = molecular target: human PD-L1 (human) (UniProt Q9NZQ7); assay: flow cytometry; PD-L1 MFI over CD28 MFI of the same protein
human PD-L1 (human), sequence (Q9NZQ7 19-290): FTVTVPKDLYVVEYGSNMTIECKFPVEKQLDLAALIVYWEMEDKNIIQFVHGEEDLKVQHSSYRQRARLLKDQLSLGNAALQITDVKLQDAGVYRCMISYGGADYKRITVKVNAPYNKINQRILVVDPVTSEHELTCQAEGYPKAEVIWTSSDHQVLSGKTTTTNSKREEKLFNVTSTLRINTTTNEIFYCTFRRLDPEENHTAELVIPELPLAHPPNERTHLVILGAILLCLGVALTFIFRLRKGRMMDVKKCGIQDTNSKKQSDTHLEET

[2] = molecular target: human PD-L1 (human) (UniProt Q9NZQ7); assay: flow cytometry, CHO/huPD-L1 cells; vs WT CD80 ECD-Fc (Abcam)
[3] = molecular target: human CTLA-4 (human) (UniProt P16410); assay: flow cytometry, CHO/huCTLA-4 cells; vs WT CD80 ECD-Fc (Abcam)
human CTLA-4 (human), sequence (P16410 36-223): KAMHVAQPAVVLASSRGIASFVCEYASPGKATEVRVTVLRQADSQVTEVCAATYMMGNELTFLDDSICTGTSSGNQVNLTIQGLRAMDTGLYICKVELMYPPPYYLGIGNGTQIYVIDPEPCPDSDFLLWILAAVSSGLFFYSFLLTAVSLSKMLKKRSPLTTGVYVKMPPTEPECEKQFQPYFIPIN

[4] = molecular target: human CTLA-4 (human) (UniProt P16410); assay: flow cytometry, CHO cells expressing huCTLA-4
[5] = molecular target: human PD-L1 (human) (UniProt Q9NZQ7); assay: flow cytometry, CHO cells expressing huPD-L1
[6] = molecular target: CD28 (human) (UniProt P10747); assay: flow cytometry, Jurkat cells (CD28); vs WT CD80 ECD-Fc (Abcam)
[7] = molecular target: CD28 (human) (UniProt P10747); assay: flow cytometry, Jurkat/IL2 reporter cells (CD28)
[8] = molecular target: CD28 (human) (UniProt P10747); assay: flow cytometry, Jurkat cells (CD28)
[9] = molecular target: human CTLA-4 (human) (UniProt P16410); assay: flow cytometry, CHO cells stably expressing CTLA4
[10] = molecular target: CD28 (human) (UniProt P10747); assay: flow cytometry, Jurkat cells (CD28); MFI over CD80 WT IgV-Fc
[11] = molecular target: human CTLA-4 (human) (UniProt P16410); assay: flow cytometry, CHO/CTLA4 cells; MFI over CD80 WT IgV-Fc
[12] = molecular target: human PD-L1 (human) (UniProt Q9NZQ7); assay: flow cytometry, CHO cells stably expressing PD-L1
[13] = molecular target: human PD-L1 (human) (UniProt Q9NZQ7); assay: flow cytometry, CHO/PD-L1 cells; MFI over CD80 WT IgV-Fc

Binder | Ratio of PDL1:CD28 [1] | Fold change to WT CD80 [2] | Fold change to WT CD80 [3] | MFI at 33.3 nM [4] | MFI at 33.3 nM [5] | Fold change to WT CD80 [6] | MFI at 33.3 nM [7] | MFI at 33.3 nM [8] | MFI at 33.3 nM [9] | Fold change to WT CD80 [10] | Fold change to WT CD80 [11] | MFI at 33.3 nM [12] | Fold change to WT CD80 [13]
B1 | 6.1 | 14.8 fold | 0.8 fold | 30800 MFI | 1900 MFI | 0.4 fold | 309 MFI | – | – | – | – | – | –
B2 | – | – | – | – | – | – | – | 3230 MFI | 23600 MFI | 31.6 fold | 17.1 fold | 64900 MFI | 393 fold
B3 | – | – | – | – | – | – | – | 1910 MFI | 23400 MFI | 18.7 fold | 16.9 fold | 67000 MFI | 406 fold
B4 | – | – | – | – | – | – | – | 2570 MFI | 21900 MFI | 25.2 fold | 15.8 fold | 64900 MFI | 393 fold
B5 | – | – | – | – | – | – | – | 1370 MFI | 20900 MFI | 13.4 fold | 15.1 fold | 68500 MFI | 415 fold
B6 | – | – | – | – | – | – | – | 3640 MFI | 22900 MFI | 35.7 fold | 16.6 fold | 67300 MFI | 408 fold
B7 | – | – | – | – | – | – | – | 2120 MFI | 16800 MFI | 20.7 fold | 12.1 fold | 43600 MFI | 264 fold
B8 | – | – | – | – | – | – | – | 5120 MFI | 12200 MFI | 50.2 fold | 8.8 fold | 54500 MFI | 330 fold
B9 | – | – | – | – | – | – | – | 2550 MFI | 16500 MFI | 25 fold | 11.9 fold | 47900 MFI | 290 fold
B10 | – | – | – | – | – | – | – | 6250 MFI | 22100 MFI | 61.3 fold | 16 fold | 67500 MFI | 409 fold
B11 | – | – | – | – | – | – | – | 3130 MFI | 17700 MFI | 30.6 fold | 12.8 fold | 33600 MFI | 204 fold
